Data as given in the domain aggregation screens of Martell et al. (2025).

Assay: soluble fraction after stress (log2 fold change); higher = more stays soluble; pooled small domains, quantitative proteomics
Details: stress: pH 4
Outline: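 Pooled custom libraries of small protein domains were subjected to pH 4 and measured by high-throughput quantitative proteomics. The log2 fold change in soluble amount per domain is reported, higher values meaning more remained soluble. This is used as a measure of aggregation propensity.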

Sequence	soluble fraction (log2)
HMENLTLVIGNKLKNIRNSRNLSLDDVAELTGVSKAMLGQIERGKSNPTVSTLWKISTGLRVSFSSFIDE	-0.249
HMEEIALTDILNRFLSSLSLEQRKIFMRRYWYLSPIKEIATEYGMSESKIKMSLFRSRNELKKLLEKEGI	-0.406
HMEVLSKRGSTGTEVINIQKKLKNWGYYTGSVDGIYGKLTEEAVRYFQRTNGLTVDGIAGKNTLAAMGIA	0.399
HMKTLKHYFASIAHEFGREEAELMLLSVFKTPFEQRLMLFMKDPALTEAQVQQLDNLVRQRKQGVPLPYIL	-0.287
HMEARYQLREVSLDGLRSGMILNADVLSTDGVLMARKGLEVSGLLRSRLEAFAKMERIEPTFKVLVPIAPP	0.284
HMDVPTSSITEVKKSPMDVFAQARKAETGVYIFNREKIAGVMLTKEQYEALVEELNTLRDTL	-1.24
HMYKIDFAEGDRVIIKGGAFSGLRATVVSLHPEKGMAKIKVYMFGDRETLVDIEVSQLEKDK	0.113
HMQSNIHELQKKLNEALQALSEDHRAVVTMFDIQGMPHAEISKILGVSEGTVRSRLYYAHQQLQGHL	-0.663
HMWNLPDPVVRPEGNVTVYENFKNTVEVLNREADLVLKFLQNEFGTSANIDDTGRARLTGSFSTDRVSSVI	-0.529
HMQPQLFRVIADDGLNIRSGPGPEYPPVAPMLRKGTQVELLQAGDRWSKVEVVGSTDVEGWVNQRYLQAV	0.0927
HMNMDLGHSISKLRTDANLTQEKFAQILNVSRQTVQKWEYGEALPDIHNIIKIAKFFNISLDALVLRS	-0.222
HMAPEVTVHDGSIVVRGHVGGVTVYDESGRQIASVQSRGAVAIPVPAGHTYLYIVKPEGKPAIKVRAAH	-0.0212
HMALIGSNLRHLRNERKLSQQELADLIRVGRTTIANIEANLANPGHKTLLEIVKVFDITIDELLHTDLTK	-0.684
HMLTTADLMMVHANSNKAIDYIVTDDNTKLTVDEPVTAKWITTADSIYRAVAYYNKVGDGKAQIVSVGN	0.0559
HMDKRYYYRILGLVGEPTRDQIEAAYETRIAKLRSSDYGDDPLYARRKISEVTMAYKVLTGS	0.139
HMGPTLTDEEEVVLNLLEKNHPVLLSELKENAGLSNKKWDKAIKGLSAHKLAKVTKTDDGLFVHLS	-0.167
HMKAAQDQDQAATLLQKATGVNQDQAKLAATVLFKEQSVTPIRQAIASGDYYQAYQDAKSLQQQ	0.22
HMGMTRPLFVTDPGLVRIGLVSPIFEKLGSGKLSPQLFDQVKEDPPEQTVFDGVEFARETGIDGVIGFG	0.0343
HMEGIAYDINTAPEHIDLKAEDMMATFNIGKTALWRWVKQKILPPPYEYRSQAAHWTIGQIRDWKTA	-0.417
HMEQAAQPQTGFDPRRLKAGDAVHLLALDQRGVLLEDPKPGAESAPVSVGVAGVRVVVPLREMEALPAG	-0.0942
HMKEDSTIIERIISNLSSASLKTQKAFEYKLTDLMFRFSEGEYEWSSAMEVIREELLPFLNK	-0.645
HMSRGAIVTGTVIEKNQSGIYVDLGYKSDGIVPIEEFDGEESKYNVGDQIRVYVKKVDDGHGQLML	-0.135
HMPPPVDLDKKGYKLRGIVLEDGRSAAFVFVPAEKRVVVLRENASGPVRLLETGMRRIRLQTPEGAGYLEL	-0.259
HMLESPVEAIIRQIKQLITNGKLKPGDRLPAERLLAENFGVGRGYVREAIMKLEFFGLLKTSPQSGTYVAG	-0.257
HMKTRTVVLKSAGGNKIAVIKIIKEITGLGLVEAKAVADNGGNIKENIPAEEAEAIKTQLTEAGAEVEL	-0.242

Sequence	soluble fraction (log2)
HMEEFDLNAYITKINSAATLNALKQAYAEANSAALSVKDKDAQRKIIVEKDKRKAELIQETAG	0.313
HMLTEEVEISLMDMTKPTQPATIKTTATIQKGATTVMPKQIKMPEGYEFYGNYKMDQPFELTMTFVVKKI	-0.0427
HMILNNAKINTELNSLAEFTQRSLDSNTSEIGFYDYKKISYIASFATMKTTNWNVIIRAPINEFMGTVN	0.203
HMISEAEGTILQLLKEADGTLPFTYKSDADEIKKVFGMSKKNFKRTLTELIEAKKIQLLDDAIVL	-0.0222
HMYPEDMMSLMRRALRLINHLESNRKDRHNSRQLELTESKIRRLARYYKGRGLIETEWAYKRDQLRLLV	-0.184
HMHVYSYPAAVKIKNAVGREMMVTLLGRSGTHVQFARQDGEEFVYPISSLDLAAQTLISKYPNDGIKN	0.0689
HMHNISQTGRRIAGMTQERWAEALDISVESVRLYESGRGMPSDDVATRMVEVSGAPVLGYWH	-1.08
HMDEILHHPSYRAIYEYMLDHKHVKTKDIAALLNVKEPRARQLLKEMIDKHFIIALGSNRNREYELL	0.348
HMTDDFAGRFNELLIHNQETAVTAATRLEVSPAVITKWRQGKSIPSGEYIKRIVETYHVSADYLLGVIDTP	-0.0517
HMGAKEHLAGETLRMAVELLSEKQGIPAEQALIRFISSPVYDALYDLDTGMWTQGPTRLLEAFEALE	-1.69
HMVIDETVLIDLFERLAEDDRPQRVAFRYILALVLLRKRTLQLIGREDEDDGEIWLLRFKGTDGEPIRV	-2.56
HMSVERIEPPLPLIDTLLALRDALERPLSREENAFLSRRFAGGATRAQIDALAAQFRGAAAAESKV	-0.324
HMDIFGREAEVEQILQEVRFGDDPHYRLSIGILPVTGHAGAGKTALVRFIFHHEVARAEFTVRMWVHV	-0.998
HMDAGIVVPDTYNKPLAEAVASLEGEGFRTEKKEGYSDTVAKGNVMSQNPEAGTNAERGSTVTIVISQGPQ	0.22
HMIKNKDRIQYTLAHRKAFRKIEKELLGYNTFRSLFHDLDKVFLYPFFDYKKVHNFHRNHAHH	0.0879
HMVFTEEEMLEKIKEYLSTNSYINRRAMETLFNLRQSTALKWLGHFTEIGVLRKEGERNYPVYFLNN	-0.159
HMTDFDWSLFTQQLKRFNLFLSYDDREKLQTFQTLYGLNELDLAEYVAKASAGEKNGLNFNYLRQLINKEK	-1.08
HMDPNAITSAQVTKLQVLANEKGFAERQARLTMWAEVIGRNVGTANELTKAEAHKLIEHMDALPV	-0.162
HMSAQDLIVRRDSARIEARVTEISPTEIRYKRASNPDGPTYVLPLGDVRSIRYANGEEEVFAPA	-0.0969
HMLHNEFINDRIQSAINNLSEHFKIVIILRDIQELSYEEISNIVEVPLGTIKSRINRARIQLQAELLDL	0.103
HMLDSDARRRGLIEYLSLNGYATMRQLAGEFDVSINTIQRDITYLARYYPLETAYGRYGGGVYFEQNWQ	-1.04
HMATPYISMAGIGKSFGPVHALKSVNLTVYPGEIHALLGENGAGKSTLMKVLSGIHEPTKGTITINNIN	≥ 0.43
HMKITKIWFTADHIFGRDEEGKEYSQSLLWYPKLSAASDEERSQYTFGYDGIHWRSLDEDISFESF	-1.52
HMRPEVALSSRELEILEALATGKSNKELAQRLFISEATVKTHLIHIYQKLGVDTRTAAVTVARERKL	-0.431
HMASVDDILDRFKQAAKVTTDADLAKVLGLSRQSIAAARLRAKIPASWFPKMSSLFNISTEWLYRG	0.011

Sequence	soluble fraction (log2)
HMTMKQVFIETDANVNQKIMLNEKEAHHLFDVLRTSDKETIRVVTNTSQVFLARVQQKPYIYLFDKMTVE	-1.76
HMGSLNDQVMKYIDALPSAFNKRELDFLIERGVKEFALNGEYLEKAIINEYKLTADTYHRER	0.129
HMGYGEQEQEAQKYLALHALMSQDPTLAKMYQAPNQYKLMSHVMEQNGIKNVNDYLTDPQQLP	-0.161
HMPMDYFELFNIPRNANRETIKKILDQEYEKYRARVVSPVLEIRHEAELMLVEISKAKQVLLG	-0.223
HMTVIARQIPPLVPRMLDGLEAFIKLDVPFEEKERLARVQMLRSSLDRDNLDTAEIFRAVLEAYNIELQY	0.195
HMSESGTFRAEAADAGRRLDVALAERLRLSRAAAQRLIAAGLVLVEGSPARKRQILHAGETVAWRAAPP	-0.0686
HMDRRSTTLQDIYTRIDAEEISEALELIPKLGEIEFEQNRAEIAEAAGVRPAVLDKLRKQAAKQENNKK	-0.216
HMAVVAPLAGSVARVLVADGDEIEAGQVLLVLEAMKMETEITAPKAGKVGAILVGKGDSVQGGQGLR	-0.249
HMEFDIDAAIHAALEPQAVMRAWFGHEGREYPEDFGVVFFRGWESFTHQEKVEAVRDAKKVLDRAVR	-1.17
HMIQHFARKRRQLELAVQRLSGRMAETNGQVTADMQRLIQQVKALVAELSHVFSRAYLRRVLGGVALVIGS	-0.145
HMEDEISLGAINVPRGSVIVTAGGARLVEGSDYTVDYYSGTVKILNKSLLDAGTPINVSLET	-0.0859
HMRARTQYWPFVEEKAAELKLPLHLVNVEPLFGEQKVVVHYTANGRIDFRELVHLLARRFHARIEMR	0.0493
HMRQQQISAAIKTSVNGTVDYYVRRLPERDPRGDFLEVWDDLQKVIQAAHGIQVSHDELYEYFRRLK	-1.19
HMTRAEVQALLEKQAKDFEVEVVHRGWKKTVQTPEFAGWYSQQPAEIKALAESDDPAVAIRMLDLFSGTK	-0.644
HMSENDTILAKFVSVMGNKNLELVIFPDIAYLKGQVSNPEDKTKAETVAQSLLGGKPLVSLIEFE	-0.917
HMNPASVLDGLKITSFSPTRAIVAGPGGSRIVFDNEAVVLGGIEWDVHIQRNGIEFTSQGQTVLLLFDRS	-0.514
HMEAVIENAAIIKQNSGGYAVRATVNGVDLGMKPVERATALLYFSLTDKLEKDRLLSHTLQKTYGDLSA	-0.213
HMKREWKDDDPTVPAGWKVAWTTTSDNRAKIAFMSPDKKIFHSRKSALQHMLAAGTYAQSDIEKMTKGL	0.377
HMTLVSALDQKTKDSAYYRGTYLAGKISAGKMTKQEAVADIMKNYDGNTAAMKVAAEKAGVSDLLSQTVL	0.0773
HMDVLDVADNVNDDMSFADAFAAARSEVGAGGIFYWHGKAYGTYYENEWAGMSEEDKADYWDAVARTTS	-0.779
HMQGWREWDYSADLYINARVGGKIEPTENSPISRVYELDEPVSVVAFTSTRYFKLSSGDYIFAEYLSAQKV	-0.18
HMIESFQNGLVEHDQFTRPNPWVTPNFSKIEVPSILLSGKHADIDLWKHQNSIENTKKNRPDLFKNYLKKN	-0.357
HMDTNEPFAQLQLRFTDPIQYDYEVIRPVVLFSQSVTDRSDETEMPRTTVREKARQFVTEGMLGLVDK	-0.216
HMISASDLQTYLKGMDYPARKEDLIVHAQRNNAPESVIAAIRQFSDRTYQSAADVSEEFGKI	-0.468
HMNSVAASLREISIKVSGTEDADKVSRLQELSQMPKLDASGIAEANTLLEQLRAKYGDLGLSVDTARGRIV	0.0674
